Reference: patent US7514534 (DYAX, dated 2009)

T1: MMP-26 catalytic domain, tagged with hexa-histidine (human, UniProt Q9NRE1 90-261)
T1 construct: the forward primer adds Met-Ala before it; also called MMP-26 target protein; Matrilysin-2; not shown: Also any N-terminal residues added by the forward primer (Met-Ala according to our card; the primers were not visible to me)
T1 sequence: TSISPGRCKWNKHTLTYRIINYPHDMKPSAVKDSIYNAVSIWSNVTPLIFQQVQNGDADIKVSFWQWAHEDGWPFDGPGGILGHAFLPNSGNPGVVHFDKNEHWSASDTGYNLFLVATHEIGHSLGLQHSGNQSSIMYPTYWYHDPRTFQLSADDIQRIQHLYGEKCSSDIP

B1: B11 (antibody, human IgG4, V domains shown)
VH: EVQLLESGGGLVQPGGSLRLSCAASGFTFSPYFMFWVRQAPGKGLEWVSSIGSSGGDTSYADSVKGRFTISRDNSZNTLYLQMNSLRAEDTAVYYCARGLYRWGQGTLVTVSS
VL: QSELTQPPSVSLAPGQTARITCGGNNIGTKSVHWYQQKPGQAPVLVVYDDSDRPSGIPERFSGSNSGNTATLTISRVEAGDEADYYCQVWDSGSDHQVFGGGTKLTVLG
notes: whole human IgG4; the VHC entry has one unread residue (printed z, K75z)
B2: C04 (antibody, human IgG4, V domains shown)
VH: EVQLLESGGGLVQPGGSLRLSCAASGFTFSMYFMVWVRQAPGKGLEWVSWIGSSGGETPYADSVKGRFTISRDNSKNTLYLQMNSLRAEDTAVYYCARGYSSGWYVMGDYWGQGTLVTVSS
VL: QSALTQPPSASGTPGQRVTISCSGTSSNIGSHYVFWYQQLPGTAPKLLIHRNDERPSGVPDRFSGSKSGTSASLAISGLQSEDEADYYCATWDDNLNGPVFGGGTKLT
notes: whole human IgG4
B3: C05 (antibody, human IgG4, V domains shown)
VH: EVQLLESGGGLVQPGGSLRLSCAASGFTFSSYQMDWVRQAPGKGLEWVSRIVPSGGDTTYADSVKGRFTISRDNSKNTLYLQMNSLRAEDTAVYYCARHVYYDSSDYFPNPFDYWGQGTLVTVSS
VL: QSELTQPPSVSGTPGQRVTISCSGSSSNIGSEYVYWFQQLPGTAPRLLIYRNDQRPSGVPDRFSGSKSGTSASLAISGLRSEDETDYYCTTWDDSLSGPVFGGGTKLTVLG
notes: whole human IgG4
B4: B12 (antibody, human IgG4, V domains shown)
VH: EVQLLESGGGLVQPGGSLRLSCAASGFTFSLYVMYWVRQAPGKGLEWVSYISSSGGITHYADSVKGRFTISRDNSKNTLYLQMNSLRAEDTAVYYCARGSIVVVPAAIRSNNWFDPWGQGTLVTVSS
VL: QSALTQPPSVSVAPGQTARISCGGDNIDTKNVQWYQQRPGQAPVLVVYDNSDRPSAIPERFSGSNSGTTATLTISRVEAGDEADYYCQVFDGRSDHPVFGGGTKLTV
notes: whole human IgG4
B5: C01 (antibody, human IgG4, V domains shown)
VH: EVQLLESGGGLVQPGGSLRLSCAASGFTFSNYGMSWVRQAPGKGLEWVSVIGPSGGITMYADSVKGRFTISRDNSKNTLYLQMNSLRAEDTAVYYCATGSSSGWYPNFDYWGQGTLVTVSS
VL: DIQMTQSPSTLSASVGDRVTITCRASQSIGNWLAWYQQKPGEAPHLLIYQASSLEGGVPSRFSGSGSGTKFTLNISSLQPDDFATYYCQQYNSYSYTFGQGTKLDIKR
notes: whole human IgG4
B6: C06 (antibody, human IgG4, V domains shown)
VH: EVQLLESGGGLVQPGGSLRLSCAASGFTFSFYFMFWVRQAPGKGLEWVSYIGPSGGPTNYADSVKGRFTISRDNSKNTLYLQMNSLRAEDTAVYYCARHYPREYQLPGSFDPWGQGTLVTVSS
VL: DIQMTQSPSSLSASVGDRVTITCRASQGISNYLAWYQQKPGKVPKLLIYPASTLQSGVPSRFSGSGSGTDFTLTISSLQPEDFATYYCQQADSFPPTFGGGTTVEIRR
notes: whole human IgG4
B7: C03 (antibody, human IgG4, V domains shown)
VH: EVQLLESGGGLVQPGGSLRLSCAASGFTFSLYMMKWVRQAPGKGLEWVSVISSSGGYTQYADSVKGRFTISRDNSKNTLYLQMNNLRAEDTAVYYCARGWDVWGKGTTVTVSS
VL: QSALTQPPSASGTPGQRVTISCSGSNSNIGGNIVIWLQQLPGTAPKLMIYDVSDRPSGVPDRFSGSKSGTSASLAISGLQSEDEADYYCAAWDDSLNGWVFGGGTKLTVLS
notes: whole human IgG4

Key:
MMP-3 = molecular target: T2, MMP-3 (UniProt P08254 100-477, limits assumed); assay: cross-reactivity ELISA on coated MMP
T2 construct: also called stromelysin-1
T2 sequence (P08254 100-477 limits assumed): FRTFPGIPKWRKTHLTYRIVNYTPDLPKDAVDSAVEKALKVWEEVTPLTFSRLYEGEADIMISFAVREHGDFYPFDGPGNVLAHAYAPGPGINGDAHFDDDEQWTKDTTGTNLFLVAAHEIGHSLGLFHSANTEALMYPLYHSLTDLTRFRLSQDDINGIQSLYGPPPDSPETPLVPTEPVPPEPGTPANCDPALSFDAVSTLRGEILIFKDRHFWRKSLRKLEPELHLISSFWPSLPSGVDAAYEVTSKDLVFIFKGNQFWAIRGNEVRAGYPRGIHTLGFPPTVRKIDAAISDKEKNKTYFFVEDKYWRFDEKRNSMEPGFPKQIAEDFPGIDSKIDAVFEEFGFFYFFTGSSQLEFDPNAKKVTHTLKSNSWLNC
Method: (§1) Twenty-one of the reformatted MMP-26 antibodies were tested for MMP cross reactivity by ELISA analysis. MMP-3, MMP-7, MMP-9, and MMP-12 were coated onto Immulon 2 HB 96-well plates at a concentration of 1 μg/ml for 1 hour at 37° C. The plates were blocked with PBS-T containing 5% (w/v) nonfat dry milk for thirty minutes and subsequently washed with PBS-T. Each antibody was tested for reactivity to all of the above mentioned MMPs at a concentration of 2 μg/ml with an incubation time of 1 hour. Bound antibody was detected with an HRP-conjugated anti-human secondary antibody (Table 3, NT=not tested.).

MMP-9 = molecular target: T3, MMP-9 (UniProt P14780 107-707, limits assumed); assay: cross-reactivity ELISA on coated MMP
T3 construct: also called gelatinase
T3 sequence (P14780 107-707 limits assumed): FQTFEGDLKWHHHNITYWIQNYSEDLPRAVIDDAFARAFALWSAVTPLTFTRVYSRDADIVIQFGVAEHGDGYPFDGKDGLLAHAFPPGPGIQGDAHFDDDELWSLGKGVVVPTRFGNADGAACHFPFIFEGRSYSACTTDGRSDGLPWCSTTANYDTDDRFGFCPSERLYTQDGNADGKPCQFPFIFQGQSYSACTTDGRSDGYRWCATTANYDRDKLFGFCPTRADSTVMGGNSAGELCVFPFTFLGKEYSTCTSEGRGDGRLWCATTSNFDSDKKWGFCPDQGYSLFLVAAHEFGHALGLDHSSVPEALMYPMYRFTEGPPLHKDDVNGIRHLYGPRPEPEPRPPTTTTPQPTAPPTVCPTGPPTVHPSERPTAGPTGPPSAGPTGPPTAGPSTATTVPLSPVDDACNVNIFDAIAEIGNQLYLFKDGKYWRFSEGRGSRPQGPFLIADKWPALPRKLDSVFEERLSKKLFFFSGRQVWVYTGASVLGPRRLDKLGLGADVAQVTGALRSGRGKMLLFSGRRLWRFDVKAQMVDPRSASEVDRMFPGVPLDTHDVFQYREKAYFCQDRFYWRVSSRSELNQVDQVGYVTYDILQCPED
Method: as §1

[1] = molecular target: T1, MMP-26 catalytic domain, tagged with …; assay: bead-based ELISA, MMP-26 on nickel beads, IgG4 culture supernatant
Method: Reformatted and expressed full-length MMP-26 binding IgG4 antibodies were tested for specificity in a bead-based ELISA. Approximately 1.25 μg of MMP-26 protein was bound to nickel-coated magnetic beads (Novagen) which had been pre-blocked with phosphate buffered saline containing 5% (w/v) nonfat dry milk and 0.05% (v/v) Tween-20. The beads were washed in phosphate buffered saline containing 0.05% (v/v) Tween-20 (PBS-T) and 100 uls of unpurified cell culture supernatant containing transiently produced MMP-26-binding antibodies was added and incubated on a rotator for sixty minutes. The beads were washed with PBS-T and MMP-26-binding antibodies were detected with an HRP-conjugated anti-human secondary antibody. Data is expressed in fold over background where background consists of beads, blocking agent, and culture supernatant containing target antibody (Table 2; in this table, Results shown as fold over background (F>B) where background consists of beads, blocking agent, and culture supernatant).

| Binder | binding result (MMP-3) | binding result (MMP-9) | F > B (fold over background) [1] [fold over background] |
| --- | --- | --- | --- |
| B1 | no binding (tested: 2 µg/ml) | no binding (tested: 2 µg/ml) | 3.13 |
| B2 | no binding (tested: 2 µg/ml) | no binding (tested: 2 µg/ml) | 2.9 |
| B3 | no binding (tested: 2 µg/ml) | no binding (tested: 2 µg/ml) | 3.6 |
| B4 | no binding (tested: 2 µg/ml) | no binding (tested: 2 µg/ml) | 2.83 |
| B5 | no binding (tested: 2 µg/ml) | no binding (tested: 2 µg/ml) | 2.8 |
| B6 | no binding (tested: 2 µg/ml) | no binding (tested: 2 µg/ml) | 2.2 |
| B7 | no binding (tested: 2 µg/ml) | no binding (tested: 2 µg/ml) | 4.1 |
